US20220363740A1 (Sanofi, published 2022)
Like-named read-outs stand apart in the source and are kept apart here. Values belong to the molecule of their own block, whether it stands above or below them.

Legend:
[1] = molecular target: T1, Human TGFβ1 (human, UniProt P01137 279-390)
[2] = molecular target: Human TGFβ1 (human) (UniProt P01137); experiment: SPR (Biacore), apparent KD, 544 RU TGFβ1 immobilized on the chip
[3] = molecular target: Human TGFβ1 (human) (UniProt P01137); experiment: SPR (Biacore), apparent KD, 24 RU TGFβ1 immobilized on the chip
[4] = molecular target: Human TGFβ1 (human) (UniProt P01137); experiment: SPR (Biacore), apparent KD, 105 RU TGFβ1 immobilized on the chip
[5] = molecular target: T1, Human TGFβ1; experiment: SPR
[6] = molecular target: T1, Human TGFβ1; experiment: SPR (Biacore), apparent KD, 544 RU TGFβ1 immobilized on the chip
[7] = molecular target: T1, Human TGFβ1; experiment: SPR (Biacore), apparent KD, 24 RU TGFβ1 immobilized on the chip
[8] = molecular target: T1, Human TGFβ1; experiment: cell-based or functional assay
[9] = molecular target: T1, Human TGFβ1; experiment: SPR (Biacore), apparent KD, 105 RU TGFβ1 immobilized on the chip

T1 sequence (P01137 279-390 limits assumed): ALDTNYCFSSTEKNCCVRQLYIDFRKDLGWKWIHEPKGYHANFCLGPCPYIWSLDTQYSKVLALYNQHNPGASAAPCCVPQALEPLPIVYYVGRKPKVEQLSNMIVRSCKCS
Sequence of Human TGFβ1 (human) (P01137 279-390 limits assumed): as above

Molecule: scFv CAT191 diabody (scFv diabody 5aa)
Kd [2]: 4.8 nM
Kd [3]: 4.1 nM
Kd [4]: 3.9 nM

B2: CAT191(scFv) (scFv)
scFv: EVQLVESGGGVVQPGRSLRLSCAASGFTFSSYGMHWVRQAPGKELEWVAVISYDGSIKYYADSVKGRFTISRDNSKNTLYLQMNSLRAEDTAVYYCARTGEYSGYDTDPQYSWGQGTTVTVSSSGGGSGGGGSGGGGSEIVLTQSPSSLSASVGDRVTITCRSSQGIGDDLGWYQQKPGKAPILLIYGTSTLQSGVPSRFSGSGSGTDFTLTINSLQPEDFATYYCLQDSNYPLTFGGGTRLEIK
notes: Parental scFv; also called scFv(CAT191)
Kd [6]: 1.3 nM
Kd [7]: 1.7 nM
IC50 (read off the curve), TGFβ1-stimulated IL-11 production (A549 bioassay) [8]: ~0.4 nM
Kd [9]: 1.6 nM

Results, then the molecule that gave them:

IC50 (read off the curve), TGFβ1-stimulated IL-11 production (A549 bioassay) [1]: 0.01 nM
Molecule: GC1008 (antibody)

binding result [5]: binds
B1: Leucine zipper peptide-derived dimer (other)
scFv: EVQLVESGGGVVQPGRSLRLSCAASGFTFSSYGMHWVRQAPGKELEWVAVISYDGSIKYYADSVKGRFTISRDNSKNTLYLQMNSLRAEDTAVYYCARTGEYSGYDTDPQYSWGQGTTVTVSSSGGGSGGGGSGGGGSEIVLTQSPSSLSASVGDRVTITCRSSQGIGDDLGWYQQKPGKAPILLIYGTSTLQSGVPSRFSGSGSGTDFTLTINSLQPEDFATYYCLQDSNYPLTFGGGTRLEIKRAAAHHHHHHGAAEQKLISEEDLNGAAPKPSTPPGSSGELEELLKHLKELLKGPRKGELEELLKHLKELLKGGAPGGHHHHHH
notes: CAT191 scFv fused to tags and a leucine zipper peptide; Expressed in E. coli and only partially purified when tested
